As a reminder, the Kd is the equilibrium constant for the complex coming apart.

Experiment [1] concerns the target T1, biotinylated FXII protein (UniProt P00748 20-615, biotinylated (sites not given)).
T1 sequence (looked up): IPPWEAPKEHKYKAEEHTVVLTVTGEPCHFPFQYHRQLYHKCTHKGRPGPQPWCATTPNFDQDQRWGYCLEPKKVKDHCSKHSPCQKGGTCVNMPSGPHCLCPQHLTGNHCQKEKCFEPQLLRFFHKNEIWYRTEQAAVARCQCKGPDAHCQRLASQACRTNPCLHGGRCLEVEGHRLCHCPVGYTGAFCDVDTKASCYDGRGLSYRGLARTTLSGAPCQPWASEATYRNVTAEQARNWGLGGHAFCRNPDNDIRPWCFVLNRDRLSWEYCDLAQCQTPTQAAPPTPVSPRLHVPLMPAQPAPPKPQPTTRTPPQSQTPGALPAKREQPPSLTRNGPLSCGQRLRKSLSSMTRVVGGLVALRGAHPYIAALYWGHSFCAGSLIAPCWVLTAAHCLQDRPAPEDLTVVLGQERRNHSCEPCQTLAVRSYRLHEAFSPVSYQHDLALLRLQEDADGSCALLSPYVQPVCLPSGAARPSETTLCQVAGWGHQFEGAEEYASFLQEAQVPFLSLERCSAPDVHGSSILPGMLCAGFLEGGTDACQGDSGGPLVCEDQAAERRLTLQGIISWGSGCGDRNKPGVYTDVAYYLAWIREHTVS
As to the kind of experiment: BLI (Fortebio Octet), biotinylated FXII loaded on the biosensor, N4-38 at 50, 20 and 10 ug/mL, 37 C. The procedure:
(1) A Fortebio Octet special solution M (a PBST solution including BSA with a mass fraction of 0.5%) was prepared, filtered through a 0.22 μm filter membrane, and stored at 4° C. for later use; (2) a biotinylated FXII protein was diluted to 10 μg/mL, a nanobody N4-38 was diluted to 50 μg/mL, 20 μg/mL, and 10 μg/mL, and resulting samples each were added; (3) a biosensor was placed in a corresponding clean well of a spare box, and […] of the Fortebio Octet special solution M was added to each well corresponding to the biosensor; (4) a program was set as follows: first stage Baseline: 60 s, second stage Loading: 200 s, third stage Baseline 2: 100 s, fourth stage Association: 300 s, fourth stage Dissociation: 300 s, and reaction temperature during the whole process: 37° C.; and (5) after a reaction was completed, data analysis was conducted by software.
(In BLI a coated tip is dipped into the sample, and binding shifts an interference pattern.)

The target in experiment [2] is T2, human FXII (human, UniProt P00748 20-615).
T2 construct: Bought protein; also called factor XII; natural human FXII
T2 sequence (looked up): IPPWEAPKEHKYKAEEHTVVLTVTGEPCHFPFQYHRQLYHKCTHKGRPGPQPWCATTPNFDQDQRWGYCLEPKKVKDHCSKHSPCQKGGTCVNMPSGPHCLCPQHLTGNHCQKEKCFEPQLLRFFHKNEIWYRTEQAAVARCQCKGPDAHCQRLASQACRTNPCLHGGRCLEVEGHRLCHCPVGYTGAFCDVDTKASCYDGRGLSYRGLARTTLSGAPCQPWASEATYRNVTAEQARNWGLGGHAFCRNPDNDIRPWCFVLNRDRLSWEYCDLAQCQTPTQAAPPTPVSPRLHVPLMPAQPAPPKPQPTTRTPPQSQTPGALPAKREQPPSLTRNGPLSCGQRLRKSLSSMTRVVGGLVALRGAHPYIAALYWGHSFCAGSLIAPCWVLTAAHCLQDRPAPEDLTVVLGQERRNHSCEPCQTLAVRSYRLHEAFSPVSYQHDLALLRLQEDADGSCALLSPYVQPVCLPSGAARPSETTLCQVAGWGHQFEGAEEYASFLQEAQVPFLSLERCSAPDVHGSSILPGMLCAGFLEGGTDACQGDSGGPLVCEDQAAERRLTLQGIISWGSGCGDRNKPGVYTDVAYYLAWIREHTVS
As to the kind of experiment: ELISA, plate coated with human FXII at 1 ug/mL, nanobody dilutions, anti-6xHis-HRP. Here is the method: The titer detection method in Example 1 was as follows: An ELISA plate was coated with human FXII at a protein concentration of 1 μg/mL overnight at 4° C.; then the ELISA plate was washed with PBST buffer and blocked with 5% skimmed milk powder at room temperature for 2 h; the ELISA plate was washed with PBST buffer (which was prepared with 1 L of PBS and 500 μL of Tween 20), then nanobodies at different dilutions were added, and the ELISA plate was incubated for 2 h at room temperature; the ELISA plate was washed with PBST buffer, then an […] (Abcam) was added, and the ELISA plate was incubated for 1 h at room temperature in the dark; the ELISA plate was washed with PBST buffer, a tetramethylbenzidine (TMB) (R&D Systems) substrate solution was added, and a chromogenic reaction was conducted for 5 min to 10 min; and a stop solution (sulfuric acid with a concentration of 2 M) was added, and an OD value of each well was determined at 450 nm by a microplate reader.

B1: nanobody N4-38 (VHH)
VHH: QVQLVESGGGLVQAGGSLRLSCAASGRTGNAYRMGWFRQAPGKEREFVAAISWNGDSTNYADSVKGRFTISRDNAKNTVYLQMNSLKPEDTAVYYCAVVKGIGVPPNMYDYWGQGTQVTVSS
notes: Alpaca nanobody expressed in E. coli from PET26b; also called N38; N4-38 antibody
In the case of B1, the dissociation constant Kd in experiment [1] was 3.07 nM. Further, in experiment [2], the titer was 220.

B2: nanobody N4-44 (VHH)
VHH: QVQLVESGGGLVQAGGSLRLSCAASGSDFSINAMGWYRQAPGKERELVATISSGGSTYYADSVKGRFTISRDNAKNTLYLHMNTLKPEDTAMYYCAILKGATPGYWGQGTQVTVSS
notes: not shown: 6xHis tag from vector PET26b
In experiment [2], B2 registered a titer of 220.

B3: nanobody A5-8 (VHH)
VHH: QVQLVESGGGLAQVGGSLRLSCAASGSTFSFKSMGWYREAPGNQRELVAAISSKGIMTNSDSVKGRFTISRDNAKNTVDLHLNNLKPEDTAVYYCNVVEVGVGGLVNVYWGQGTQVTVSS
notes: as for B2
B3 registered a titer in experiment [2] of 220.
